Laboratory results from patent publication US8663912B2, “Fluorogenic substrate for ADAMTS13” (Washington University, priority 2011, dated 2014).

Biological target: T1, ADAMTS13 (Homo sapiens, UniProt Q76LX8)
T1 sequence (Q76LX8 75-1427): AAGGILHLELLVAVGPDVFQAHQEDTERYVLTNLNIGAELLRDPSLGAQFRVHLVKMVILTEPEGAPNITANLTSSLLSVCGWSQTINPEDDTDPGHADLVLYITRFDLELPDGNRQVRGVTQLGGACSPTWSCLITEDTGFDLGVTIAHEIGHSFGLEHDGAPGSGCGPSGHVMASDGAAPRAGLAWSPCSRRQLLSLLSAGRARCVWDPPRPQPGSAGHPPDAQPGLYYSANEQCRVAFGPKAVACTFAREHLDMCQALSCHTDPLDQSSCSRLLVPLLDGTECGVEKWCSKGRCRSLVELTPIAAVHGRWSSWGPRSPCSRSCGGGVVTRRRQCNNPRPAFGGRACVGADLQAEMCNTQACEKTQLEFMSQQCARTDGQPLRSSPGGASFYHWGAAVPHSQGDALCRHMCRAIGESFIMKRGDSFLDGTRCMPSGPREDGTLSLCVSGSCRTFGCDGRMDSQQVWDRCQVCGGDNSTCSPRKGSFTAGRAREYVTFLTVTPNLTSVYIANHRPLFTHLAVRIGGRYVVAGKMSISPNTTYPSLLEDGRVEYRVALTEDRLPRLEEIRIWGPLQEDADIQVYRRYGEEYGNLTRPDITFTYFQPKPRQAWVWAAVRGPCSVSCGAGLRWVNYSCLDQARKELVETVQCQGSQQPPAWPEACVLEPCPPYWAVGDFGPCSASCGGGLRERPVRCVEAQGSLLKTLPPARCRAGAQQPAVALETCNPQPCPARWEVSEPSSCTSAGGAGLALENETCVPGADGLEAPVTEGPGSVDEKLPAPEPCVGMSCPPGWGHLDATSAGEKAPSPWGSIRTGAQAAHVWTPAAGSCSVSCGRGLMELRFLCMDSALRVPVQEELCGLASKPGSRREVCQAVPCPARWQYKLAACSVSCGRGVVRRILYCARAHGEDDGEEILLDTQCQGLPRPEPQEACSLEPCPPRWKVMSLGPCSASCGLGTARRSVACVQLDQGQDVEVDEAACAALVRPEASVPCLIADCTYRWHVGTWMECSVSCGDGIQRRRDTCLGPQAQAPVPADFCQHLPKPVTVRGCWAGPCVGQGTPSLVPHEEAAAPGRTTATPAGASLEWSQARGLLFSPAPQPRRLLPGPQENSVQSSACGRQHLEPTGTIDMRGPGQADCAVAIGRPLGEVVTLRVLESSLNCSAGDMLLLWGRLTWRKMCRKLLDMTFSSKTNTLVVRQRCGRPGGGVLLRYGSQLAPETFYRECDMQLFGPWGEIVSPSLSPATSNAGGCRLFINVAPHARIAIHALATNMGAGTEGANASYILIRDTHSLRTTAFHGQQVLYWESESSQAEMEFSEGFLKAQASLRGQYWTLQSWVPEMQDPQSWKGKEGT
Assay: Effect of bilirubin and hemoglobin on FRETS-rVWF71 ADAMTS13 assays
Assay type: biochemical
Parameters: FRETS-rVWF71 cleavage by plasma ADAMTS13 (50 μL) was assessed in 200 μL reactions; from tissue; host or cells: human plasma or serum (pooled normal plasma, healthy donors, TTP patients)

IC50 for inhibition of ADAMTS13 activity (FRETS-rVWF71 substrate): 10-15 g/L
effect on detection of FRETS-rVWF71 cleavage products (hemoglobin ≦20 g/L): did not affect
Substance: hemoglobin
